Assay results: the DeepSol protein solubility set

experiment: soluble on expression in E. coli; label from the status in PepcDB or PDB records

| Sequence | soluble on expression in E. coli |
| --- | --- |
| MSSTKRPASRADEITQELVRMIQLADARRIAKLPTEMELAAQLGISRPVIRESLSRLESLNMVTRRQGSGLYIVAPEKRSPEALVLLEQSAPLSPRSIAEAMSVRAILELETGRLAALNHRQVDLDRMAAEIERLAATGARGLEAAEADEAFHRALSDAAGNVTLSQVLDLFLRLSWRRRVEYFSQPKLGKQSIIEHQEILNAVASGDPDAVSTAIRTHLNSAERFWDSKYVKKKS | not soluble |
| GPGSGSDERVVALKDITLAESKHSNAATTKQGASTTNCLQRSNLPPPFAPVRRGEFVMIRGPSGGGKTTLLNIIGSIDSCTEGNIELNGRIIDKDTKESVLADIRLKNIGFVFQTFNLIATMTAAENVELPMTLLGTMSTKAMRLRSRQLLTLVGLRNRINHLPSELSGGEQQRVTIARSLANNPSILLLDEPTGDLDTANTIEVMDLLMRINRRTKTTCIMVTHNPDIECYADRILYVSDGRFAKEVFNALPMCLDLENYTEYLAAKERAITGFAGVGDVEDDSEPRATAAMAECIG | not soluble |
| SDKDSQGLLDSSLMASGTASRSEDEESLAGQKRASSQALGTIPKRRSSSRFIKRKKFDDELVESSLAKSSTRVKGAGGVESGRCSGSEPSSSEKKKVSKAPSTPVPPSPAPTPGLTKRVKKSKQPLQVTKDLGRWKPADDLLLINAVLQTNDLTSVHLGVKFSCRFTLREVQERWYALLYDPVISKLACQAMRQLHPEAIAAIQSKALFSKAEEQLLSKVGSSSQPTLETFQDLLHTHPDAFYLARTAKALQAHWQLMKQYYLLEDQTVQPLPKGDQVLNFSDAEDLIDDSKLKDMRDEVLEHELTVADRRQKREIRQLEQELHKWQVLVDSITGMGSPDFDNQTLAVLRGRMVRYLMRSREITLGRATKDNQIDVDLSLEGPAWKISRKQGVIKLKNNGDFFIANEGRRPIYIDGRPVLCGSKWRLSNNSVVEIASLRFVFLINQDLIALIRAEAAKITPQ | soluble |
| AHHHHHHGSKVEGFVASLRNAETIDDLFAILKKKGAPVVEFDGMKKLVIVEGDFEGEKFWTEINGAKANLALGDAMLNAASVPFKCKRDFTGGNLILLDFDSIESNEFLIAYVSEKSGVYFHVKAEEVKEITKEEYDELKDRMPEFKAKSYSEEEMEGMGAFFG | soluble |
| MGSDKIHHHHHHMQLQELHMLVVLAEELNMRKAAERLFVSQPALSQRLQTIEKAWGTKIFLRSQKGLTVTPAGEKIIQFANDVTLEQERIRENIDELEGEIHGTLKLAVASIIGQHWLPKVLKTYVEKYPNAKISLITGWSSEMLKSLYEDQVHIGIIRGNPEWKGRKDYLMTDHLYLVDTEISCIEDIAHTERPFIQFKSDSTYFQEIQHWWHQKFKTSPKQTILVDQIETCKQMALHGIGYAILPSVTLQNEDKVNKMPLLDMKGHPIGRDTWLLGYEPAFELKQVQAFVQVIKDMLDQENPF | not soluble |
| MAHHHHHHMTNLNVESGYFNDELKEEANEANFMYTNISMLIRAHRKDRNKLTLQNKKLNLIKIVGFVLAIEEKKEFIVYTVDDSTGYIKAKLLLTYSYSACNDKNEDIKVDDMVQIFGICNTVSINEDLTISISSINKVNSLNHLCHHHLLVFHNYLKFLETQKKNLALEDERAKNEEDEIAPHVPTNDNPFFNSFFY | not soluble |
| LAGLALAATLLATGKRPVPDQLAGYHETTLSVGHRDVPVSLHIWYPAAQDGTAELVGQNALFYGQYVLRDAKPAPGAHPVVVFSHGSGGNANNHGWLATELARQGMIVVAPNHPGTMSRDSDPHRTPHIWERARDLHAILDSLETNPPLGMQPDMDRVASAGFSLGGFSALSIAGVRVSKAAFIDYCDRHAGEFDCGWMQAASVDFAAIDPAAYEADYRDPRIKATVSIDPALPQAMTGDSLTAATLPILLVSLGQGEEVPPATRVDAMARQMPQARLVETPGAWHFSFLSECSTLGWIIIGLMGEENICSDIGMRDRGVLHEELKAVISTFLS | not soluble |
| MSIESKIRQLIDQNGYITCDVLMQEVLNLNPTSYYKQVKSLANEGDFVTAPEISQLFGEIIGLWCIREWQRIGCPKSLSLVELGPGRGLLMRDLLRTAKLVPEFYKALSIELIEINKNFIAYQKANLQDINLPISHQSFVEDIPKKPTIIIANEFFDAIPIKQYIKVKELWYERIFVVQPVDERIKYDKISVNKQLQEYLLCTHIEAKDGAVLEESYKSIEIIKFIAQHLKRLSGSGLIIDYGYDIAPNGRTRYQYNQTLQAVKNHKYCPILENLGEADLSAHVDFYALKTVAKNSKINVIDTISQRDFLIENGILLRKQTLQDKLNDRHLAKFAYREEFKGDTKRSTAAYTLVREDASIGSTYKLPLEVEFGKMSEQAQIIERQVERLISPKQMGELFKVLQIMN | not soluble |
